Results from patent publication US20210079060A1 (ALETA BIOTHERAPEUTICS, published 2021).
Where “and” joins values, the source holds several entries; their conditions need not be identical. Equal values may be shown once.

T1: Clec12A (human, UniProt Q5QGZ9 1-265)
T1 construct: whole, on cells; also called CLL-1; MICL
T1 sequence (looked up): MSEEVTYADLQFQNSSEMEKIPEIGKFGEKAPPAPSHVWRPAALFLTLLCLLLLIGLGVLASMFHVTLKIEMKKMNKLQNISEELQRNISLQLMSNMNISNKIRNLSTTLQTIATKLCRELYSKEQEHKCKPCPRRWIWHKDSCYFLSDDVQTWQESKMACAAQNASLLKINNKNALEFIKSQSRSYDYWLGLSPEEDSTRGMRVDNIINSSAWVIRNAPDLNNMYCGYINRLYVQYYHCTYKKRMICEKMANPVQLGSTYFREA

T2: CD20 (UniProt P11836 1-297, limits assumed)
T2 construct: whole, on cells; also called CD20 positive HEK293 cells
T2 sequence (looked up): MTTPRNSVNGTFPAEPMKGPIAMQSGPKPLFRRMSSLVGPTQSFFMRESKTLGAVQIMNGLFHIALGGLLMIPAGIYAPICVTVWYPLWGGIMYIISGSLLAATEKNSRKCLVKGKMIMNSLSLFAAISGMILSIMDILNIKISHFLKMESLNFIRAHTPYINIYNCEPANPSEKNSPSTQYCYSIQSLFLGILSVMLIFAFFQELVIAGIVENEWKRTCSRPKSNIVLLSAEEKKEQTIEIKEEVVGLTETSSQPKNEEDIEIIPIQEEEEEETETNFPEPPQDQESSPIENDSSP


Columns and labels:
[1] = molecular target: T1, Clec12A; experiment: sandwich ELISA: coated with FMC63, construct titrated, followed by Clec12A-bio, detected by HRP-SA
[2] = molecular target: T2, CD20; experiment: binding to CD20 positive HEK293 cells (method of the fit not stated)
[3] = molecular target: T2, CD20; experiment: binding to CD20 positive cells; unit as printed in the table; it follows from 22.34 ug/ml and MW 210.8 kDa, while the curve's axis is in ng/ml
[4] = molecular target: T2, CD20; experiment: FACS on CD20 positive HEK293 cells, detected with FMC63-PE
[5] = molecular target: T2, CD20; experiment: binding to CD20 positive cells; unit as printed in the table, but the x-axis of the curve is in ng/ml and the half-maximum lies near 20 on it
[6] = molecular target: T2, CD20; experiment: FACS on 293T cells transfected with CD20, FMC63-PE detection
[7] = molecular target: T2, CD20; experiment: binding to CD20 positive HEK293 cells (method of the fit not stated); scFv-based construct #302 (Leu16 scFv), not the full mAb

Row | binding result [1] | Kd [2] [nM] | EC50 [3] [nM] | EC50 [4] | EC50 [5] [µg/mL] | EC50 [6] | Kd [7] [nM] | Binder
1 | no binding (tested: 1 ug/ml) |  |  |  |  |  |  | #320 (VHH, also called construct #320; CD19 mutant #2-G4Sx4-anti CLEC12a VHH 1B11 myc His) fusion protein, single chain: PEEPLVVKVEEGDTAVLPCLKGTSDGPTQQLTWSRESPLKPFLKYSLGVPGLGVHVRPDAISVVIRNVSQQMGGFYLCQPGPPSEKAWQPGWTVNVEGSGELFRWNVSDLGGLGCGLKNRSSEGPSSPSGKLMSPKLYVWAKDRPEIWEGEPPCLPPRDSLNQSLSQDLTMAPGSTLWLSCGVPPDSVSRGPLSWTHVHPKGPKSLLSLELKDDRPAREMIVDETGLLLPRATAQDAGKWYCSRGNVTTSYHLEITARPVKAHSDLRTGGWKGGGGSGGGGSGGGGSGGGGSAVQLQESGGGLVQAGGSLRLSCAASGSDRSINVMNWYRQAPGKQRELVAAITSGGTTNYAQSVKGRVTISRDSAKNTVYLQMNSLKPEDTAVYFCKADTRWGGMYWGPGTQVTVSSTSGPGGQGAEQKLISEEDLGAHHHHHHGAS
2 |  | ~0.016 | 106 | 0.00343 µg/mL and 0.0163 nM | 22.3 |  |  | Rituximab-CD19 construct (#377/378) (antibody, human IgG1, kappa, also called Rituximab-based construct; wild type Rituximab-CD19 construct) light: QIVLSQSPAILSASPGEKVTMTCRASSSVSYIHWFQQKPGSSPKPWIYATSNLASGVPVRFSGSGSGTSYSLTISRVEAEDAATYYCQQWTSNPPTFGGGTKLEIKRTVAAPSVFIFPPSDEQLKSGTASVVCLLNNFYPREAKVQWKVDNALQSGNSQESVTEQDSKDSTYSLSSTLTLSKADYEKHKVYACEVTHQGLSSPVTKSFNRGECGGGGSGGGGSGGGGSGGGGSPEEPLVVKVEEGDTAALWCLKGTSDGPTQQLTWSRESPLKPFLKYSLGVPGLGVHVRPDAISVVIRNVSQQMGGFYLCQPGPPSEKAWQPGWTVNVEGSGELFRWNVSDLGGLGCGLKNRSSEGPSSPSGKLMSPKLYVWAKDRPEIWEGEPPCLPPRDSLNQSLSRDLTVAPGSTLWLSCGVPPDSVSRGPLSWTHVHPKGPKSLLSLELKDDRPARDMWVMGTSLMLPRATAQDAGKWYCHRGNLTMSFHLEITARPSRHHHHHH heavy: not shown
3 |  |  |  | 0.161 µg/mL and 2.78 nM |  | 0.0754 µg/mL and 1.3 nM | ~3 | anti-CD20 scFv-CD19 D1+2 C term mutant #2 (scFv, scFv of anti-CD20 mAb Leu16 fused to a CD19 variant; also called Leu16scFv-CD19 construct) QVKLQESGAELVKPGASVKMSCKASGYTFTSYNMHWVKQTPGQGLEWIGAIYPGNGDTSYNQKFKGKATLTADKSSSTAYMQLSSLTSEDSADYYCARSNYYGSSYWFFDVWGQGTTVTVSSASTGGGGSGGGGSGGGGSDIELTQSPTILSASPGEKVTMTCRASSSVNYMDWYQKKPGSSPKPWIYATSNLASGVPARFSGSGSGTSYSLTISRVEAEDAATYYCQQWSFNPPTFGGGTKLEIKRAAAGGGGSGGGGSGGGGSGGGGSPEEPLVVKVEEGDTAALWCLKGTSDGPTQQLTWSRESPLKPFLKYSLGVPGLGVHVRPDAISVVIRNVSQQMGGFYLCQPGPPSEKAWQPGWTVNVEGSGELFRWNVSDLGGLGCGLKNRSSEGPSSPSGKLMSPKLYVWAKDRPEIWEGEPPCLPPRDSLNQSLSRDLTVAPGSTLWLSCGVPPDSVSRGPLSWTHVHPKGPKSLLSLELKDDRPARDMWVMGTSLMLPRATAQDAGKWYCHRGNLTMSFHLEITARPSRHHHHHH
